This is an account of results in US20230227537A1 (VIB VZW, published 2023).

Test [1] deals with SARS-CoV-1 spike, full length, on cells or on pseudotyped virus (SARS-CoV-1, UniProt P59594 14-1255). The test can be described thus: cell-based or functional assay.
Test [2] concerns the target SARS-CoV-2 RBD protein Avi-tag biotinylated (AcroBiosystems SPD-C82E9) (SARS-CoV-2, UniProt P0DTC2 330-518).
A further test has as its target SARS-CoV RBD (SARS-CoV-1, UniProt P59594 320-502).

B1: VHH72_h1 (VHH)
VHH: EVQLVESGGGLVQPGGSLRLSCAASGRTFSEYAMGWFRQAPGKEREFVATISWSGGSTYYTDSVKGRFTISRDNAKNTVYLQMNSLRPEDTAVYYCAAAGLGTVVSEWDYDYDYWGQGTLVTVSS
With B1, in test [1], the “IC50, VSV-dG SARS-CoV-1 spike pseudotype neutralization” value worked out at 0.491 µg/mL.

B2: VHH72_h1(S56A) (VHH)
VHH: EVQLVESGGGLVQPGGSLRLSCAASGRTFSEYAMGWFRQAPGKEREFVATISWSGGATYYTDSVKGRFTISRDNAKNTVYLQMNSLRPEDTAVYYCAAAGLGTVVSEWDYDYDYWGQGTLVTVSS
As for B2, in test [1], the “IC50, VSV-dG SARS-CoV-1 spike pseudotype neutralization” value was 0.045 µg/mL and the “fold better neutralization than parental VHH72” value is 10 fold.

B3: SARS VHH-72 (VHH)
VHH: QVQLQESGGGLVQAGGSLRLSCAASGRTFSEYAMGWFRQAPGKEREFVATISWSGGSTYYTDSVKGRFTISRDNAKNTVYLQMNSLKPDDTAVYYCAAAGLGTVVSEWDYDYDYWGQGTQVTVSS
The term IC50 denotes the concentration at which inhibition is half-maximal. Lower therefore signals greater potency in that assay. As for B3, the IC50 in test [2] is 16 nM.

B4: VHH72_h1 (E1D) (VHH)
VHH: DVQLVESGGGLVQPGGSLRLSCAASGRTFSEYAMGWFRQAPGKEREFVATISWSGGSTYYTDSVKGRFTISRDNAKNTVYLQMNSLRPEDTAVYYCAAAGLGTVVSEWDYDYDYWGQGTLVTVSS
Usually koff stands for the first-order rate constant of dissociation. A higher koff goes with fast dissociation. For B4, the koff in the test with SARS-CoV RBD was 0.00219 s⁻¹.
